Data published in the supplement of paper PMC9170038.

Experiments:
MS2 coat protein [1] = assay: apparent KD of MS2 coat protein, switch ON state; designed switch direction (-1 OFF switch, 1 ON switch): -1; higher = weaker reporter binding; conditions: FMN input: 0 or 200 uM; Eterna round: R93 (includes R88 designs)
How it was run: (§1)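 Designed RNA switches were transcribed on-chip from Illumina sequencing clusters. SNAP-549-labelled MS2 coat protein was titrated onto them in twofold steps from 0.7 or 1.5 nM to 3 µM in 100 mM Tris-HCl pH 7.5, 80 mM KCl, 4 mM MgCl2, either without or with constant ligand. Apparent KD reflects the per-design median of normalised cluster binding-curve fits.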

MS2 coat protein [2] = assay: apparent KD of MS2 coat protein, switch OFF state (with FMN for OFF switches, without FMN for ON switches); designed switch direction (-1 OFF switch, 1 ON switch): -1; higher = weaker reporter binding; conditions: FMN input: 0 or 200 uM; Eterna round: R93 (includes R88 designs)
How it was run: as §1

MS2 coat protein [3] = assay: apparent KD of MS2 coat protein; designed switch direction (-1 OFF switch, 1 ON switch): 1; higher = weaker reporter binding
How it was run: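 Apparent KD, taken as the median over clusters for each design, was obtained by curve-fitting normalised cluster fluorescence. Designed RNA switches had been transcribed on Illumina chips by stalled E. coli RNA polymerase and titrated with SNAP-549-labelled MS2 coat protein, doubling from 0.7 or 1.5 nM to 3 µM.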

[4] = input ligand: microRNA oligo, concentration not stated
[5] = Eterna round: R95, input ligand: FMN 200 uM
[6] = Eterna round: R95, input ligand: microRNA oligo, concentration not stated
[7] = Eterna round: R95, input ligand: none

Sequence: AAAAAACAUGAGGAUCACCCAUGUAAGGAUAUCGGAAAAGGAAAAAUAAAAAAGAAGACGAGAAGGUACACCAA [Mat - Exclusion 1 - Eli mod - D78]
- apparent KD of MS2 coat protein (MS2 coat protein [1]): 25.8 nM
- apparent KD of MS2 coat protein (MS2 coat protein [2]): 24 nM

Sequence: AAAAAACAUGAGGAUCACCCAUGUAAGGAUAUCGUGCAGAAAAAAAAAAAAAACUGCACGAGAAGGUACUUGGA [Brourd - Exclusion 1 - Sub 3]
- apparent KD of MS2 coat protein (MS2 coat protein [1]): 43.1 nM
- apparent KD of MS2 coat protein (MS2 coat protein [2]): 87.9 nM

Sequence: AAAAAACAUGAGGAUCACCCAUGUAAGGAUAUGCAAAACCCAUAUAAAAAGGGAAAAAGCAGAAGGUACAAAAA [Starry Exclusion 1.1 (wbt round 1 mod)]
- apparent KD of MS2 coat protein (MS2 coat protein [1]): 24.9 nM
- apparent KD of MS2 coat protein (MS2 coat protein [2]): 33.1 nM

Sequence: AAAAAACAUGAGGAUCACCCAUGUAAGGAUAUGCUAAAAAACACGGAAAAACGUGAUAGCAGAAGGUACAAAAA [66%, Wbt, 31]
- apparent KD of MS2 coat protein (MS2 coat protein [1]): 22.6 nM
- apparent KD of MS2 coat protein (MS2 coat protein [2]): 33.4 nM

Sequence: AAAAAACAUGAGGAUCACCCAUGUCAGGAUAUCCGGUUAAAAAAAAAAAAAAGGCGUUGGAGAAGGGACAUUCC [Chica Displaced 9 - Jieux - Exclusion 1]
- apparent KD of MS2 coat protein (MS2 coat protein [1]): 25.7 nM
- apparent KD of MS2 coat protein (MS2 coat protein [2]): 33.4 nM

Sequence: AAAAAACAUGAGGAUCACCCAUGUCAGGAUAUCCUAAAGAAACUCGUAAAAAGAAAUAGGAGAAGGGACAAAAA [PK4]
- apparent KD of MS2 coat protein (MS2 coat protein [1]): 53.7 nM
- apparent KD of MS2 coat protein (MS2 coat protein [2]): 46.7 nM

Sequence: AAAAAACAUGAGGAUCACCCAUGUCAGGAUAUCUGGAGAAACGGAAAGAAAAAGAAACGGAGAAGGGACAUAAA [Starryjess mod]
- apparent KD of MS2 coat protein (MS2 coat protein [1]): 29.6 nM
- apparent KD of MS2 coat protein (MS2 coat protein [2]): 28.5 nM

Sequence: AAAAAACAUGAGGAUCACCCAUGUGAGGAUAUCCAAAACAAAAAAAAACAAAACAAAAGGAGAAGGCACAUAAA [Amethyst 54]
- apparent KD of MS2 coat protein (MS2 coat protein [1]): 58.8 nM
- apparent KD of MS2 coat protein (MS2 coat protein [2]): 43.1 nM

Sequence: AAAAAACAUGAGGAUCACCCAUGUGAGGAUAUCCAAAAGUCAAAGAAAAAGACGAAAAGGAGAAGGCACAAAAA [Banishment 2 - Jieux - Exclusion 1]
- apparent KD of MS2 coat protein (MS2 coat protein [1]): 44.2 nM
- apparent KD of MS2 coat protein (MS2 coat protein [2]): 49.1 nM

Sequence: AAAAAACAUGAGGAUCACCCAUGUGAGGAUAUCCAGAAGGGAAUAAAAUAACACGAAAGGAGAAGGCGCAAAAA [Ex 1 May 35]
- apparent KD of MS2 coat protein (MS2 coat protein [1]): 35.8 nM
- apparent KD of MS2 coat protein (MS2 coat protein [2]): 31.1 nM

Sequence: AAAAAACAUGAGGAUCACCCAUGUGAGGAUAUGCAAAAAAAAAAAAAAAAAUAAAAAAGCAGAAGGCACAAAAA [Sh'dynasty]
- apparent KD of MS2 coat protein (MS2 coat protein [1]): 30.6 nM
- apparent KD of MS2 coat protein (MS2 coat protein [2]): 33.2 nM

Sequence: AAAAAACAUGAGGAUCACCCAUGUGAGGAUAUUCAAAAAAAAAAAAAAAACACAAGAAGGAGAAGGCACAAAAA [Default title]
- apparent KD of MS2 coat protein (MS2 coat protein [1]): 29.6 nM
- apparent KD of MS2 coat protein (MS2 coat protein [2]): 73 nM

Sequence: AAAAACGGAGGAUAUGCAAAAAAAAAAAAAAAAAAAAAAAAACAUGAGGAUCACCCAUGUAGAAGGCCGAAAAA [Diamond]
- apparent KD of MS2 coat protein (MS2 coat protein [1]): 25.6 nM
- apparent KD of MS2 coat protein (MS2 coat protein [2]): 36.9 nM

Sequence: AAAAACGUAGGAUAUACAUGAAAAAAAAAAAAAAAAAAAAGACAUGAGGAUCACCCAUGUAGAAGGGCGAAAAA [water's exclusion 2]
- apparent KD of MS2 coat protein (MS2 coat protein [1]): 91.9 nM
- apparent KD of MS2 coat protein (MS2 coat protein [2]): 76.8 nM

Sequence: AAAAAGAAAGGAUAUACGAACAUGUCAAAAGACGUGAAGGGACAUGAGGAUCACCCAUGUAGAAGGUUCAAAAA [JL Half Open 22]
- apparent KD of MS2 coat protein (MS2 coat protein [1]): 35.8 nM
- apparent KD of MS2 coat protein (MS2 coat protein [2]): 17.1 nM

Sequence: AAAAAGCGAGGAUAUACAUAGCUAAGACGUGUGAGCGAAAAACAUGAGGAUCACCCAUGUAGAAGGCGCAAAAA [Exclusion2-03]
- apparent KD of MS2 coat protein (MS2 coat protein [1]): 18.2 nM
- apparent KD of MS2 coat protein (MS2 coat protein [2]): 16.9 nM

Sequence: AAAAAGGAAGGAUAUACGAACAUGUCAAAAGACGUGAAGGGACAUGAGGAUCACCCAUGUAGAAGGUCUAAAAA [JL Half Open 26]
- apparent KD of MS2 coat protein (MS2 coat protein [1]): 32.4 nM
- apparent KD of MS2 coat protein (MS2 coat protein [2]): 22.9 nM

Sequence: AAAAAGGCAGGAUAUGCAUACCCACGAAAAAAAACGCUGGGACAUGAGGAUCACCCAUGUAGAAGGGCCAAAAA [Dora Explored 11 - Jieux - Exclusion 2]
- apparent KD of MS2 coat protein (MS2 coat protein [1]): 54 nM
- apparent KD of MS2 coat protein (MS2 coat protein [2]): 28.2 nM

Sequence: UUGCUCGUGUAAGGAUAUGCAGCCGUUUCGGCUGCAGAAGGUACUAUAAUACAUGAGGAUCACCCAUGUCUCUAUUAUUUAGUG [salish99_SSNG1_r04_925] (Eterna round: R96, puzzle: Same State NG 1)
- apparent KD of MS2 coat protein (MS2 coat protein [3]; input ligand: FMN 200 uM): 43 nM
- apparent KD of MS2 coat protein (MS2 coat protein [3]; [4]): 38.3 nM
- apparent KD of MS2 coat protein (MS2 coat protein [3]; input ligand: none): 49.4 nM

Sequence: UUGCUCGUGUGAGGAUAUGCCGCCGUUUCGGCUGCAGAAGGUACUCUGUUACAUGAGGAUCACCCAUGUCUCUGUUGUUUCGUG [salish99_SSNG1_r04_939] (Eterna round: R96, puzzle: Same State NG 1)
- apparent KD of MS2 coat protein (MS2 coat protein [3]; [4]): 34.7 nM

Sequence: UUGGUGUAGAUACAGGAUAUGUUGCUUGUAACAUGAGGAUCACCCAUGUAUCUAUGAGAUUAAAUGCAGAAGGGUGCACAUCACU [salish99_ss2_r3_089] (puzzle: Same State 2)
- apparent KD of MS2 coat protein (MS2 coat protein [3]; [5]): 390 nM
- apparent KD of MS2 coat protein (MS2 coat protein [3]; [6]): 582 nM
- apparent KD of MS2 coat protein (MS2 coat protein [3]; [7]): 1020 nM

Sequence: UUGUUUUGAAAUUAACAUGAGGAUCACCCAUGUCUUGACACAGAGGAUAUACAUGUUUGUUUGUAGUAGAAGGCUGUUUAUUGU [JR_SSNG3_Sub097] (Eterna round: R96, puzzle: Same State NG 3)
- apparent KD of MS2 coat protein (MS2 coat protein [3]; input ligand: FMN 200 uM): 57 nM
- apparent KD of MS2 coat protein (MS2 coat protein [3]; [4]): 98 nM
- apparent KD of MS2 coat protein (MS2 coat protein [3]; input ligand: none): 135 nM

Sequence: UUUAGAUUCAGAGGAUAUUGAUGUUGUAUUUUACAAGAAGGCUGAUUGGUUUGAAUUGUUUUUUAACAUGAGGAUCACCCAUGU [JR_SSNG1_Sub011] (Eterna round: R96, puzzle: Same State NG 1)
- apparent KD of MS2 coat protein (MS2 coat protein [3]; [4]): 19.2 nM

Sequence: UUUAGUAGCGGGCAGGAUAUGUAUUAAAAUACAUGAGGAUCACCCAUGUGCGGGUAUAACACCCGACAGAAGGGCCAAUCGCUAC [Laonerce - 8] (puzzle: Same State 2)
- apparent KD of MS2 coat protein (MS2 coat protein [3]; [5]): 22.3 nM
- apparent KD of MS2 coat protein (MS2 coat protein [3]; [6]): 162 nM
- apparent KD of MS2 coat protein (MS2 coat protein [3]; [7]): 237 nM

Sequence: UUUAGUGGCGGGCAGGAUAUGUAUUAAAAUACAUGAGGAUCACCCAUGUGCGGGUAUAACACCCGACAGAAGGGCCAAUCGCUAC [Laonerce - 7] (puzzle: Same State 2)
- apparent KD of MS2 coat protein (MS2 coat protein [3]; [5]): 20.9 nM
- apparent KD of MS2 coat protein (MS2 coat protein [3]; [6]): 275 nM
- apparent KD of MS2 coat protein (MS2 coat protein [3]; [7]): 397 nM

Sequence: UUUAGUUGCGGGCAGGAUAUGUAUUAAAAUACAUGAGGAUCACCCAUGUACGGGUAUAACACCCGACAGAAGGGCCAAUCGCGAC [Laonerce - 4] (puzzle: Same State 2)
- apparent KD of MS2 coat protein (MS2 coat protein [3]; [5]): 16.8 nM
- apparent KD of MS2 coat protein (MS2 coat protein [3]; [6]): 62.6 nM
- apparent KD of MS2 coat protein (MS2 coat protein [3]; [7]): 91.5 nM

Sequence: UUUAUACAUGAGGAUCACCCAUGUCAAUGUAGUCGAGGAUAUGGGCAGCUGUGAGGCGUACUAGAAGGCGAAGAGG [JL-ss1-3.09 ViennaUCT mod] (puzzle: Same State 1)
- apparent KD of MS2 coat protein (MS2 coat protein [3]; [5]): 103 nM
- apparent KD of MS2 coat protein (MS2 coat protein [3]; [6]): 378 nM
- apparent KD of MS2 coat protein (MS2 coat protein [3]; [7]): 579 nM

Sequence: UUUAUAUUCAGAGGAUAUUGAUGUUGUAUUUUACAAGAAGGCUGAUUGUUUUGUAAUGUUAUUAUACAUGAGGAUCACCCAUGU [JR_SSNG1_Sub014] (Eterna round: R96, puzzle: Same State NG 1)
- apparent KD of MS2 coat protein (MS2 coat protein [3]; [4]): 17.3 nM

Sequence: UUUCGAUAGAUAGGAUAUCACCUUACAUGAGGAUCACCCAUGUUGGCCGUGCUGGUUAUUCAUACUGAGAAGGAUCUUGAUGAC [JR_SSNG2_Sub004] (Eterna round: R96, puzzle: Same State NG 2)
- apparent KD of MS2 coat protein (MS2 coat protein [3]; input ligand: FMN 200 uM): 39.4 nM
- apparent KD of MS2 coat protein (MS2 coat protein [3]; [4]): 37 nM
- apparent KD of MS2 coat protein (MS2 coat protein [3]; input ligand: none): 45 nM

Sequence: UUUCUUCUCGUAGGAUAUGUAGGAUAUGCCUACAUGAGGAUCACCCAUGUUCGCAUGGCAGAAGGACAGAAGGACGAUCACCCU [pwkr ssNG2 2FMN + 1F5.9] (Eterna round: R96, puzzle: Same State NG 2)
- apparent KD of MS2 coat protein (MS2 coat protein [3]; input ligand: FMN 200 uM): 55.4 nM
- apparent KD of MS2 coat protein (MS2 coat protein [3]; [4]): 234 nM
- apparent KD of MS2 coat protein (MS2 coat protein [3]; input ligand: none): 502 nM

Sequence: UUUGAAUUGCAAGGAUAUCUUAUUUAGAUUUUAAGAGAAGGUGCUUUAUAGUUACAUGAGGAUCACCCAUGUAUUUCUUUUUAU [JR_SSNG1_Sub062] (Eterna round: R96, puzzle: Same State NG 1)
- apparent KD of MS2 coat protein (MS2 coat protein [3]; [4]): 18.5 nM

Sequence: UUUGAAUUGCAAGGAUAUUGAUAACAUGAGGAUCACCCAUGUAAUUGUUCGAGUUAGAUUAGUUACAAGAAGGUGCUAUUGUUU [JR_SSNG2_Sub039] (Eterna round: R96, puzzle: Same State NG 2)
- apparent KD of MS2 coat protein (MS2 coat protein [3]; input ligand: FMN 200 uM): 385 nM
- apparent KD of MS2 coat protein (MS2 coat protein [3]; [4]): 165 nM
- apparent KD of MS2 coat protein (MS2 coat protein [3]; input ligand: none): 287 nM
